The record followed here is the supplement of paper PMC7877785.

± gives the uncertainty stated by the source.

The data set can be described thus: self-splicing fitness, log relative to wild type (ln ratio); higher = more splicing; Tetrahymena group I intron in knt gene, E. coli kanamycin selection, DiMSum; sequences stand for … in CUCUCU…GGAGGGAAAAGUUAUCAGGCAUGCACCUGGUAGCUAGUCUUUAAACCAAUAGAUUGCAUCGGUUUAAAAGGCAAGACCGUCAAAUUGCGGGAAAGGGGUCAACAGCCGUUCAGUACCAAGUCUCAGGGGAAACUUUGAGAUGGCCUUGCAAAGGGUAUGGUAAUAAGCUGACGGACAUGGUCCUAACCACGCAGCCAAGUCCUAAGUCAACAGAUCUUCUGUUGAUAUGGAUGCAGUUCACAGACUAAAUGUCGGUCGGGGAAGAUGUAUUCUUCUCAUAAGAUAUAGUCGGACCUCUCCUUAAUGGGAGCUAGCGGAUGAAGUGAUGCAACACUGGAGCCGCUGGGAACUAAUUUGUAUGCGAAAGUAUAUUGAUUAGUUUUGGAGUACUCGUGGUCG
The method, boiled down: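 DiMSum derived fitness as the error-weighted combination of fold changes across replicates, kanamycin versus no kanamycin, normalised to wild type. E. coli BL21(DE3) held the library, which randomised all eight P1ex-region intron nucleotides within the knt kanamycin-resistance gene on pET-22b(+). Six replicate transformations grew overnight at 37°C or 30°C on LB agar with or without 25 μg/mL kanamycin, also containing 100 μg/mL carbenicillin, 50 μM IPTG and 0.2% rhamnose, and pooled colonies were amplicon-sequenced on an Illumina HiSeq 2500.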

Regarding AAGUAGCAAUAUUACGGACU, the “self-splicing fitness (ln)” value by setting is: (30 °C) -0.577 ± 0.11; (37 °C) -0.212 ± 0.15.

GAUAAGCAAUAUUACGCAUU: the “self-splicing fitness (ln)” value is -2.5 ± 0.32 (30 °C) and -2.26 ± 0.35 (37 °C).

For GCAUAGCAAUAUUACGACUA, the “self-splicing fitness (ln)” value runs as follows: (30 °C) -0.161 ± 0.23; (37 °C) 0.00165 ± 0.2. The like results for AGAUAGCAAUAUUACGCGCC were, in that order, -0.504 ± 0.15 and -0.626 ± 0.27. Take CCACAGCAAUAUUACGCAUU: the “self-splicing fitness (ln)” value is -3.53 ± 0.17 (30 °C) and -3.11 ± 0.16 (37 °C). In the case of AAGAAGCAAUAUUACGCCUG, the “self-splicing fitness (ln)” value by setting is: (30 °C) -0.11 ± 0.11; (37 °C) -0.509 ± 0.14. Regarding UGCGAGCAAUAUUACGCUCA, the “self-splicing fitness (ln)” value (37 °C) was 0.239 ± 0.26. For the sequence GUUUAGCAAUAUUACGAGAC, the “self-splicing fitness (ln)” value is, setting by setting: (30 °C) -3.35 ± 0.49; (37 °C) -2.08 ± 0.32.

Take AUUAAGCAAUAUUACGAUCC: the “self-splicing fitness (ln)” value by setting is: (30 °C) -0.418 ± 0.11; (37 °C) -0.106 ± 0.19. The like results for UCGUAGCAAUAUUACGCGGG were, in that order, -3.63 ± 0.37 and -0.254 ± 0.15. The like results for AAAGAGCAAUAUUACGGCAA were, in that order, -3.23 ± 0.36 and -1.58 ± 0.19. For the sequence UCAGAGCAAUAUUACGUUGA, the “self-splicing fitness (ln)” value is -2.33 ± 0.12 (30 °C) and -1.54 ± 0.14 (37 °C). The like results for CACGAGCAAUAUUACGCCGU were, in that order, -3 ± 0.21 and -2.26 ± 0.18. The like results for CCGCAGCAAUAUUACGAGAG were, in that order, -2.62 ± 0.084 and -1.56 ± 0.082. With AGUUAGCAAUAUUACGGAGG, the “self-splicing fitness (ln)” value is, setting by setting: (30 °C) -2.91 ± 0.3; (37 °C) -2.13 ± 0.41.

Take UGGGAGCAAUAUUACGUAAG: the “self-splicing fitness (ln)” value (30 °C) is -0.459 ± 0.15 and the “self-splicing fitness (ln)” value (37 °C) is -1.12 ± 0.2.

Regarding AAAUAGCAAUAUUACGGUGG, the “self-splicing fitness (ln)” value was -3.94 ± 0.21 (30 °C) and -2.68 ± 0.17 (37 °C). The like results for GUCAAGCAAUAUUACGGCAU were, in that order, -1.55 ± 0.083 and -0.119 ± 0.1. The like results for UAACAGCAAUAUUACGUCGC were, in that order, -3.59 ± 0.38 and -2.73 ± 0.44.

As for AUGUAGCAAUAUUACGAUCC, the “self-splicing fitness (ln)” value by setting is: (30 °C) -0.944 ± 0.14; (37 °C) -0.204 ± 0.15.

With GAGUAGCAAUAUUACGCAUG, the “self-splicing fitness (ln)” value was -0.973 ± 0.29 (30 °C) and -0.606 ± 0.47 (37 °C). The like results for CCUCAGCAAUAUUACGCCUC were, in that order, -3.76 ± 0.35 and -1.75 ± 0.31. As for AAGCAGCAAUAUUACGAGGG, the “self-splicing fitness (ln)” value is -2.45 ± 0.14 (30 °C) and -2.28 ± 0.2 (37 °C). The like results for UGGCAGCAAUAUUACGUCAG were, in that order, -0.12 ± 0.074 and -0.817 ± 0.11. The like results for CAGGAGCAAUAUUACGCUUA were, in that order, -2.86 ± 0.21 and -2.02 ± 0.21. The like results for GGGUAGCAAUAUUACGAUGU were, in that order, -0.794 ± 0.1 and 0.357 ± 0.15. As to GGGUAGCAAUAUUACGUAGG, the “self-splicing fitness (ln)” value is, setting by setting: (30 °C) -2.74 ± 0.24; (37 °C) -1.5 ± 0.2. The like results for UUCAAGCAAUAUUACGUCGU were, in that order, -2.69 ± 0.15 and -1.44 ± 0.14. The like results for UUUUAGCAAUAUUACGCUGU were, in that order, -3.26 ± 0.34 and -1.98 ± 0.33. The like results for CACUAGCAAUAUUACGGUAC were, in that order, -3.09 ± 0.2 and -2.87 ± 0.19. In the case of UUCGAGCAAUAUUACGAUCG, the “self-splicing fitness (ln)” value is, setting by setting: (30 °C) -2.94 ± 0.32; (37 °C) -1.53 ± 0.43. As for AUGCAGCAAUAUUACGCCAC, the “self-splicing fitness (ln)” value was -2.31 ± 0.47 (30 °C) and -2.1 ± 0.36 (37 °C). The like results for CUACAGCAAUAUUACGUACG were, in that order, -0.289 ± 0.088 and 0.18 ± 0.099. Turning to CACUAGCAAUAUUACGUGAC, the “self-splicing fitness (ln)” value (30 °C) was -2.12 ± 0.14 and the “self-splicing fitness (ln)” value (37 °C) was -2.36 ± 0.19. The like results for AAGAAGCAAUAUUACGAUGU were, in that order, -1.29 ± 0.086 and -1.01 ± 0.1. The like results for ACCUAGCAAUAUUACGUUAG were, in that order, -3.59 ± 0.14 and -2.69 ± 0.19. The like results for ACGAAGCAAUAUUACGAUGG were, in that order, -2.34 ± 0.13 and -1.17 ± 0.12. Turning to GGAGAGCAAUAUUACGGAUU, the “self-splicing fitness (ln)” value (37 °C) was -1.62 ± 0.22.

Turning to UAGAAGCAAUAUUACGUCCA, the “self-splicing fitness (ln)” value was -0.0908 ± 0.069 (30 °C) and 0.309 ± 0.1 (37 °C). The like results for UAGGAGCAAUAUUACGAAGC were, in that order, -4.41 ± 0.33 and -1.44 ± 0.26. The like results for UUCUAGCAAUAUUACGAGGA were, in that order, -2.56 ± 0.25 and -1.4 ± 0.25. AACCAGCAAUAUUACGACAU: the “self-splicing fitness (ln)” value was -0.243 ± 0.01 (30 °C) and 0.152 ± 0.031 (37 °C).

As for CUUCAGCAAUAUUACGUUGU, the “self-splicing fitness (ln)” value is -3.52 ± 0.18 (30 °C) and -2.92 ± 0.28 (37 °C). Regarding CCUAAGCAAUAUUACGUGUU, the “self-splicing fitness (ln)” value runs as follows: (30 °C) -3.2 ± 0.14; (37 °C) -3.07 ± 0.19. The like results for UAGCAGCAAUAUUACGAUAU were, in that order, -2.42 ± 0.15 and -2.98 ± 0.19. The like results for CGUAAGCAAUAUUACGAUCA were, in that order, -1.17 ± 0.11 and -0.755 ± 0.12. The like results for GAUAAGCAAUAUUACGGGCC were, in that order, -1.48 ± 0.17 and -1.13 ± 0.18.

Turning to UUCAAGCAAUAUUACGGCAC, the “self-splicing fitness (ln)” value was -2.66 ± 0.4 (30 °C) and -1.11 ± 0.33 (37 °C). The like results for UUAAAGCAAUAUUACGUUCG were, in that order, 0.19 ± 0.084 and -0.157 ± 0.096. On to CUAUAGCAAUAUUACGUACG, for which the “self-splicing fitness (ln)” value was 0.0512 ± 0.15 (30 °C) and -0.136 ± 0.14 (37 °C).

Take GCACAGCAAUAUUACGCUUG: the “self-splicing fitness (ln)” value (30 °C) was -2.89 ± 0.12 and the “self-splicing fitness (ln)” value (37 °C) was -1.39 ± 0.11. As to GCAUAGCAAUAUUACGACAA, the “self-splicing fitness (ln)” value (30 °C) was -2.27 ± 0.19 and the “self-splicing fitness (ln)” value (37 °C) is -0.595 ± 0.13. The like results for CCUGAGCAAUAUUACGCCGC were, in that order, -2.83 ± 0.5 and 0.153 ± 0.33.

On to AUCAAGCAAUAUUACGUCCG, for which the “self-splicing fitness (ln)” value is -2.1 ± 0.14 (30 °C) and -1.14 ± 0.16 (37 °C). The like results for AUCCAGCAAUAUUACGUAUU were, in that order, -1.84 ± 0.078 and -1.23 ± 0.093. The like results for GAUCAGCAAUAUUACGCGUG were, in that order, -0.471 ± 0.048 and 0.0677 ± 0.066. On to UGUGAGCAAUAUUACGCGUG, for which the “self-splicing fitness (ln)” value by setting is: (30 °C) -1.92 ± 0.11; (37 °C) -1.75 ± 0.11.

Regarding CAAAAGCAAUAUUACGCUGC, the “self-splicing fitness (ln)” value was -3.02 ± 0.25 (30 °C) and -3.03 ± 0.29 (37 °C).

For the sequence GUUAAGCAAUAUUACGUGAU, the “self-splicing fitness (ln)” value (30 °C) was -1.94 ± 0.067 and the “self-splicing fitness (ln)” value (37 °C) was -1.44 ± 0.082. The like results for UCUAAGCAAUAUUACGCAUG were, in that order, -1.88 ± 0.095 and -2.07 ± 0.12. With CUGCAGCAAUAUUACGGCUA, the “self-splicing fitness (ln)” value by setting is: (30 °C) -2.6 ± 0.19; (37 °C) -0.78 ± 0.17. As to AACUAGCAAUAUUACGGCUG, the “self-splicing fitness (ln)” value is -1.02 ± 0.098 (30 °C) and -0.0943 ± 0.15 (37 °C).

In the case of UGAAAGCAAUAUUACGGUUG, the “self-splicing fitness (ln)” value by setting is: (30 °C) -1.29 ± 0.079; (37 °C) -0.865 ± 0.091. The like results for UAAUAGCAAUAUUACGUGUU were, in that order, -1.68 ± 0.14 and -1.97 ± 0.17. The like results for GUAGAGCAAUAUUACGUGUG were, in that order, -0.928 ± 0.073 and -1.6 ± 0.12. For CAGCAGCAAUAUUACGGUAA, the “self-splicing fitness (ln)” value is -1.97 ± 0.12 (30 °C) and -1.41 ± 0.12 (37 °C). The like results for ACAGAGCAAUAUUACGACGA were, in that order, -0.906 ± 0.43 and -1.83 ± 0.38. Take CCCGAGCAAUAUUACGCUCU: under “37 °C”, the “self-splicing fitness (ln)” value was -2.7 ± 0.29.

As to CCCAAGCAAUAUUACGAGCA, the “self-splicing fitness (ln)” value was -3.01 ± 0.24 (30 °C) and -2.95 ± 0.25 (37 °C).

With UCCCAGCAAUAUUACGCUCA, the “self-splicing fitness (ln)” value (30 °C) is -1.48 ± 0.11 and the “self-splicing fitness (ln)” value (37 °C) was -0.496 ± 0.11. For UUAUAGCAAUAUUACGGAGU, the “self-splicing fitness (ln)” value by setting is: (30 °C) -3.38 ± 0.32; (37 °C) -2.15 ± 0.3.

Take CGUAAGCAAUAUUACGGAGA: the “self-splicing fitness (ln)” value by setting is: (30 °C) -2.79 ± 0.24; (37 °C) -2.28 ± 0.29. For the sequence AGUGAGCAAUAUUACGGGUA, the “self-splicing fitness (ln)” value (30 °C) is -3.22 ± 0.23 and the “self-splicing fitness (ln)” value (37 °C) is -1.61 ± 0.26.

Take GGGUAGCAAUAUUACGAAUG: the “self-splicing fitness (ln)” value is, setting by setting: (30 °C) -2.18 ± 0.25; (37 °C) -1.32 ± 0.4. The like results for GAUGAGCAAUAUUACGCGAU were, in that order, -3.05 ± 0.34 and -1.57 ± 0.21.
